{"source": "patent US20240117035A1", "key": {"SNU620 (human)": {"target": "SNU620 (human) (UniProt P56856)", "test": "FACS binding, SNU620 cells", "conditions": "bispecific antibody"}, "Jurkat (human)": {"target": "Jurkat (human) (UniProt P07766)", "sequence (P07766 23-207)": "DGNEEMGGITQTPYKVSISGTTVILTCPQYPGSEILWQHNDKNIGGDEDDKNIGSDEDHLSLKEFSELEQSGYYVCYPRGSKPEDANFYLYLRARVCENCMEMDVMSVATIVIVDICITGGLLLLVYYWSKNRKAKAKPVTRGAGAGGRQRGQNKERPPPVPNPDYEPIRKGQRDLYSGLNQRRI", "test": "FACS binding, Jurkat cells", "conditions": "bispecific antibody"}}, "data": [{"substance": "AMG-910", "values": [{"measurement": "EC50", "setting": "SNU620 (human)", "value": 87.8, "unit": "nM"}, {"measurement": "EC50", "setting": "Jurkat (human)", "value": 0.55, "unit": "nM"}]}]}
